Measured values reported in patent publication US10584243B2, “Antithrombotic compounds, methods and uses thereof” (The University of British Columbia, priority 2014, dated 2020).

Tests used:
[1] = system: platelets in human platelet-rich plasma; assay: Platelet activation by flow cytometry (CD62P); format: cell-based; settings: highest dose
Procedure: Blood from healthy consented donors was either collected into 3.8% sodium citrate tube with a blood/anticoagulant ratio of 9:1 or serum tube at Centre for Blood Research, University of British Columbia. The protocol was approved by the University of British Columbia clinical ethical committee and written consent was obtained from each individual donor. Platelet-rich plasma (PRP) was prepared by centrifuging citrated whole blood samples at 150×g for 10 min in an Allegra X-22R™ Centrifuge (Beckman Coulter™, Canada). Serum was prepared by centrifuging the blood collected in serum tube at 1200×g for 30 min one hour after blood collection.
The level of platelet activation after exposure to polyP inhibitors was quantified by flow cytometry. Ninety microliters of platelet rich plasma (PRP) was incubated at 37° C. with 10 μL of either 10 mg/mL or 20 mg/mL of UHRA, protamine or PEI stock solution (final polymer concentration 1 mg/mL and 2 mg/mL respectively) in PBS. […] The level of platelet activation was analyzed in a BD FACSCanto II flow cytometer (Becton Dickinson™) by gating platelets specific events based on their forward scattering profile (size of individual platelet). Activation of platelets was expressed as the percentage of platelet activation marker CD62-PE fluorescence detected in the 10,000 total events counted. […]

[2] = mice; intravenous injection; for UHRAs maximum injected dose, maximum tolerated dose not reached; cited from earlier work
human fibrinogen = molecular target: T1, human fibrinogen (Homo sapiens, UniProt P02671+P02675+P02679); assay: Fibrin clot turbidity and scanning electron microscopy; settings: fibrin polymerization assay
T1 sequence (P02671 20-644 isoform P02671-2 limits assumed): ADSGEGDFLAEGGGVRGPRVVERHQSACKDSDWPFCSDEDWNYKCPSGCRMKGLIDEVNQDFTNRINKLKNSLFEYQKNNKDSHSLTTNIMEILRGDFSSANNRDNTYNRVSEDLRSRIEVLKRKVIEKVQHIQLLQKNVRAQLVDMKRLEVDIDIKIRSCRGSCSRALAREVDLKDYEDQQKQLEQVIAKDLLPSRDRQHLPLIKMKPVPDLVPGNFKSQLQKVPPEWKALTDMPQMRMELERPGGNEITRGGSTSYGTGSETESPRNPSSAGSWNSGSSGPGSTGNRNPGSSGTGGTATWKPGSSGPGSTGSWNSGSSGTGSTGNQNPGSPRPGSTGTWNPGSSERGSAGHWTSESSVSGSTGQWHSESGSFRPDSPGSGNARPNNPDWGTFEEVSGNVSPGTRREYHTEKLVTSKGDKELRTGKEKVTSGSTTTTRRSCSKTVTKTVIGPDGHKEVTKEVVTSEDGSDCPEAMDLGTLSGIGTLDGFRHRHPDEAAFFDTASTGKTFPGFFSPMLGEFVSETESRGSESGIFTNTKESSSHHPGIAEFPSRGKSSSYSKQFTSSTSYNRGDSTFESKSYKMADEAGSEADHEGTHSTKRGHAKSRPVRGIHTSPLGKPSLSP
T1 sequence (P02675 45-491 limits assumed): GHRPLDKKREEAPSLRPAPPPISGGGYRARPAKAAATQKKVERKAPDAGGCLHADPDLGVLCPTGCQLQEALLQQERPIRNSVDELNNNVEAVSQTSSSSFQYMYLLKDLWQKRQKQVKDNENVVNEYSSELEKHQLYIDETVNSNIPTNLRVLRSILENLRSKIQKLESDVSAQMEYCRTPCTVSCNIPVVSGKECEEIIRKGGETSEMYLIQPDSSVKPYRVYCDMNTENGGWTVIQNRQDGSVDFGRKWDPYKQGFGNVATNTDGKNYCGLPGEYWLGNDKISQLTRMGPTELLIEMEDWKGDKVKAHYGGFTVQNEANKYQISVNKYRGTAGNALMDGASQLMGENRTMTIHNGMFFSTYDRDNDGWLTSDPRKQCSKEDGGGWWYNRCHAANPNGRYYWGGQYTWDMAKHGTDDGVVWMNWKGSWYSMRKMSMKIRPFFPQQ
T1 sequence (P02679 27-437 isoform P02679-2 limits assumed): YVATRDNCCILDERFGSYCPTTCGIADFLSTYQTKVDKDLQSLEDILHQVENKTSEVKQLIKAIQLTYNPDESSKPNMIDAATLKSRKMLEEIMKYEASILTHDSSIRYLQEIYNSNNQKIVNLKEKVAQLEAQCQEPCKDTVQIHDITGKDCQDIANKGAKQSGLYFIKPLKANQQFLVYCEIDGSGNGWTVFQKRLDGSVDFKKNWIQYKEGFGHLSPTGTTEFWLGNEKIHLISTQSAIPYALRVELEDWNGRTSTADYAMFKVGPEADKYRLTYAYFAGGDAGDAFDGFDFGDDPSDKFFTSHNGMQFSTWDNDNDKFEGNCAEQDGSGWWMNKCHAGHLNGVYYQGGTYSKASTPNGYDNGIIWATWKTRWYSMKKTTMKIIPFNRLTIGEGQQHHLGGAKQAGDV
Procedure: The morphology of clots formed in presence of UHRA and protamine was determined by scanning electron microscopy (SEM) analysis. All samples for SEM were randomly coded and blinded to the individual performing imaging and analysis to avoid bias. Fibrin clots were formed in sterile round-bottomed 5 mL polypropylene tubes (BD Falcon) by mixing purified human fibrinogen (200 μL, 3 mg/mL) in 20 mM HEPES (pH 7.4 and 150 mM NaCl) with 2.5 NIHU/mL thrombin and 3 mM CaCl2 and UHRA or protamine (in HEPES buffer) (0-500 μg/mL). All concentrations are final. Control clot was prepared in the absence of UHRA or protamine. After incubating the solution for 1 hour at 37° C., clots were immediately fixed using karnovsky fixative (2.5% glutaraldehyde and 4% formaldehyde) and repeatedly washed with 0.1 M sodium cacodylate buffer (pH=7.4) followed by post-fixation with 1% v/v osmium tetroxide. The samples were washed three times with distilled water and then dehydrated with gradient ethanol series (20-95% v/v). […] Fiber diameters of all clots were measured with image analysis software package ImageJ™ (National Institutes of Health, USA). Fiber diameter (n=30) from 8 separate areas of each clot was measured and used for calculating the average fiber size formed.

For protamine sulfate, the “platelet activation (CD62P expression)” value [1] is listed as “about 30%”, the “dose tolerated (up to)” value [2] is listed as “up to 20 mg/kg” and the “final turbidity (A405) of fibrin clots” value (human fibrinogen) is listed as “elevated final turbidity”.
